According to article PMC6877594, “Atomic structure of the human herpesvirus 6B capsid and capsid-associated tegument complexes” (Nature Communications, 2019):
“And” between values parts separate entries of the source, which are not always exact repeats. Equal values may be shown once.

B1: major capsid protein (MCP) of human herpesvirus 6B (natural protein)
chain: MENWQATEILPKIEAPLNIFNDIKTYTAEQLFDNLRIYFGDDPSRYNISFEALLGIYCNKIEWINFFTTPIAVAANVIRFNDVSRMTLGKVLFFIQLPRVATGNDVTAPKETTIMVAKHSEKHPINISFDLSAACLEHLENTFKNTVIDQILNINALHTVLRSLKNSADSLERGLIHAFMQTLLRKSPPQFIVLTMNENKVHNKQALSRVQRSNMFQSLKNRLLTSLFFLNRNNNSSYIYRILNDMMESVTESILNDTNNYTSKENIPLDGVLLGPIGSIQKLTNILSQYISTQVVSAPISYGHFIMGKENAVTAIAYRAIMADFTQFTVNAGTEQQDTNNKSEIFDKSRAYADLKLNTLKLGDKLVAFDHLHKVYKNTDVNDPLEQSLQLTFFFPLGIYIPTETGFSTMETRVKLNDTMENNLPTSVFFHNKDQVVQRIDFADILPSVCHPIVHDSTIVERLMKNEPLPTGHRFSQLCQLKITRENPTRILQTLYNLYESRQEVPKNTNVLKNELNVEDFYKPDNPTLPTERHPFFDLTYIQKNRATEVLCTPRIMIGNMPLPLAPISFHEARTNQMLEHAKTNSHNYDFTLKIVTESLTSGSYPELAYVIEILVHGNKHAFMILKQVISQCISYWFNMKHILLFCNSFEMIMLISNHMGDELIPGAAFAHYRNLVSLIRLVKRTISISNINEQLCGEPLVNFANALFDGRLFCPFVHTMPRNDTNAKITADDTPLTQNTVRVRNYEISDVQRMNLIDSSVVFTDNDRPSNENTILSKIFYFCVLPALSNNKACGAGVNVKELVLDLFYTEPFICPDDCFQENPISSDVLMSLIREAMGPGYTVANTSSIAKQLFKSLIYINENTKILEVEVSLDPAQRHGNSVHFQSLQHILYNGLCLISPITTLRRYYQPIPFHRFFSDPGICGTMNADIQVFLNTFPHYQRNDGGFPLPPPLALEFYNWQRTPFSVYSAFCPNSLLSIMTLAAMHSKLSPVAIAIQSKSKIHPGFAATLVRTDNFDVECLLYSSRAATSIILDDPTVTAEAKDIVTTYNFTQHLSFVDMGLGFSSTTATANLKRIKSDMGSKIQNLFSAFPIHAFTNTDINTWIRHHVGIEKPNPSEGEALNIITFGGINKNPPSILLHGQQAICEVILTPVTTNINFFKLPHNPRGRESCMMGTDPHNEEAARKALYDHTQTDSDTFAATTNPWASLPGSLGDILYNTAHREQLCYNPKTYSPNAQFFTESDILKTNKMMYKVINEYCMKSNSCLNSDSEIQYSCSEGTDSFVSRPCQFLQNALPLHCSSNQALLESRSKTGNTQISETHYCNYAIGETIPLQLIIESSI
notes: major capsid protein (MCP) of human herpesvirus 6B, strain Z29; 1345 amino acids long; domains described over a.a; 1-1345; Native protein in the virion capsid; 16 conformers (15 hexon, 1 penton) modelled in each asymmetric unit; also called penton MCP; hexon MCP
B2: triplex dimer protein (Tri2) of human herpesvirus 6B (natural protein)
chain: METVYCTFDHKLSLSDISTLCKLMNIVIPIPAHHHLIGSGNLGLYPIVSSNKDYVHIRNVLRTMVVTILQKVEGNQLVLRKPMTGQQYAIKNTGPFPWEKGDTLTLIPPLSTHSEEKLLKLGDWELTVPLVVPTAIAAEINIRLLCIGLIAVHREYNEMQTIIDELCSIQYRDVLIKLPDIVNDKQSMYSMKTACISLSMITAMAPDIVRTYIDRLTLEDHSMLLIKCQELLSKRTTLSTQRCGQLHATDIKDELKKIKSVLTMIDQINSLTNEKTYFVVCDVSADNRMATCIYKN
notes: triplex dimer protein (Tri2) of human herpesvirus 6B, strain Z29; domains clamp (a.a. 1-86), trunk (a.a. 87-181 and 276-296), embracing arm (a.a. 182-275); Native protein in the virion capsid; two conformers (Tri2A, Tri2B) of the same protein in each triplex; also called Tri2A; Tri2B
B3: tegument protein pU11 of human herpesvirus 6B (natural protein)
chain: MDLKAQSIPFAWLDRDKVQRLTNFLSNLENLENVDLREHPYVTNSCVVREGEDVDELKTLYNTFILWLMYHYVLSKRKPDYNAIWQDITKLQNVVNEYLKSKGLNKGNFENMFTNKEKFESQFSDIHRALLRLGNSIRWGSNVPIDTPYVNLTAEDSSEIENNLQDAEKNMLWYTVYNINDPWDENGYLVTSINKLVYLGKLFVTLNQSWSKLEKVAMSQIVTTQNHLSGHLRKNENFNAVYSQRVLQTPLTGQRVESFLKIITSDYEIIKSSLESYSASKAFSVPENGPHSLMDFASLDGRMPSDLSLPSISIDTKRPSADLARLKISQPKSLDAPLKTQRRHKFPESDSVDNAGGKILIKKETLGGRDVRATTPVSSVSLMSGVEPLSSLTSTNLDLRDKSHGNYRIGPSGILDFGVKLPAEAQSNTGDVDLLQDKTSIRSPSSGITDVVNGLANLNLRQNKSDVSRPWSKNTAANADVFDPVHRLVSEQTGTPFVLNNSDVAGSEAKLTTHSTETGVSPHNVSLIKDLRDKDGFRKQKKLDLLGSWTKEKNDKAIVHSREVTGDSGDATETVTARDSPVLRKTKHANDIFAGLNKKYARDVSRGGKGNSRDLYSGGNAEKKETSGKFNVDKEMTQNEQEPLPNLMEAARNAGEEQYVQAGLGQRVNKILAEFTNLISLGEKGIQDILHNQSGTELKLPTENKLGRESEEANVERILEVSDPQNLFKNFKLQNDLDSVQSPFRLPNADLSRDLDSVSFKDALDVKLPGNGEREIDLALQKVKAGERETSDFKVGQDETLIPTQLMKVETPEEKDDVIEKMVLRIRQDGETDEETVPGPGVAESLGIAAKDKSVIAS
notes: tegument protein pU11 of human herpesvirus 6B, strain Z29; 858 a.a. long; wild-type full-length protein inside the virion, only a.a; 7-275 (pU11nt) are resolved and modelled; also called pU11nt (the resolved N-terminal one-third, a.a. 7-275); pU11nt-a-1
B4: smallest capsid protein (SCP) of human herpesvirus 6B, U32 gene product (natural protein)
chain: MTTIRGDDLSNQITQISGSSSKKEEEKKKQQMLTGVLGLQPTMANHPVLGVFLPKYAKQNGGNVDKTAFRLDLIRMLALHRLNTKTGSD
notes: smallest capsid protein (SCP), U32 gene product of human herpesvirus 6B, strain Z29; 89 residues long; the model covers residues 23-83, residues 1-22 are disordered; Native protein in the virion capsid; 16 conformers modelled in each asymmetric unit; also called penton SCP; hexon SCP

Legend:
[1] = molecular target: the molecule itself; assay: cryo-EM structure; in situ in HHV-6B (Z29) virions pelleted from SupT1 culture supernatant and resuspended in PBS; icosahedral reconstruction ~5.1 Å, sub-particle reconstructions at the fivefold, threefold and twofold axes at 3.82, 3.77 and 3.77 Å; atomic models of 59 conformers
[2] = molecular target: B1; assay: as above; settings: partners not purified

Binder	stoichiometry N [1]	stoichiometry N [2]
B1	5 and 6	–
B2	2	–
B3	4	–
B4	–	1
